The results in this text go back to patent US20200407723, “APTAMER BASED AFFINITY CAPTURE METHODS FOR THE SELECTIVE ENRICHMENT OF HUMAN IMMUNOGLOBULIN FC DOMAINS” (Waters Technologies Corporation, published 2020).

Data set [1] addresses NISTmAb humanized IgG1 (Fc domain) (UniProt P01857-1 P01857-1:99-330). As to the kind of experiment: pulldown; from rat plasma, 12.5 ug aptamer, about 85% of 100 ug recovered, purity 10.6% to 72.4%; bound mAb to plasma protein ratio near 7:3; retained in 5 mM CaCl2 Tris. Particulars: chain copies: 2; label: 5'-biotin. The procedure:
280 nm, Em. 370 nm) and re-calculated according to the chromatographic purity assessment. […] After purification, about 85% of the spiked NIST mAb was recovered with purity increasing from 10.6% to 72.4%.
The small portion of impurity in the purified NIST mAb eluate was determined to be the non-specific binding of rat plasma endogenous proteins to the aptamer. The competition in binding between NIST mAb and plasma protein was investigated by loading 20 μL of rat plasma containing 50 μg of NIST mAb onto an increasing amount of immobilized aptamer (5 μg, 12.5 μg, 25 μg). The result of this experiment is summarized in FIG. 8D-E. From which, it is possible to observe that the binding ratio of NIST mAb to plasma protein is close to 7:3 (from UV measurement) for the current experimental approach.
To test out this optional protocol step, 20 μL of plasma and 25 μg of NIST mAb were diluted with binding buffer to 200 μL then loaded onto 40 μL of streptavidin resin wherein 5 μg of aptamer was non-covalently immobilized. […] Herein, the second washing and elution fractions were collected and analyzed by LC-UV analysis. […]

The next data set addresses bovine serum albumin (Bos taurus, UniProt P02769 P02769:25-607). Description: pulldown; negative control; negligible non-specific binding in Tris with Mg2+; high non-specific binding with Zn2+, especially without NaCl. Particulars: tags: Sigma-Aldrich; label: 5'-biotin. Here is the method:
A positive pressure manifold (commercially available from Waters Technologies Corporation, Milford, Mass.) was utilized to drive flow through the filter plate. The amount of aptamer immobilized was determined by abosorbance at 260 nm using a DS-11 spectrophotometer (commercially available from DeNovix Inc., Wilmington, Del.). This non-covalently immobilized aptamer affinity resin was used to perform the affinity capture of 100 μg human IgG (IgG from human serum, commercially available from Sigma-Aldrich (now MilliporeSigma), St. Louis, Mo.) contained within 200 μL of several different binding buffers (specified below). After 1 hour of mixing, the resin was washed with two repeated 200 μL volumes to remove any unbound protein. Combined hIgG flow-through and washing fractions were saved to determine the amount of hIgG breakthrough. […] The eluate was saved for hIgG recovery measurements using a fluorescence plate reader (Ex. 280 nm, Em. 370 nm; Gemini™ XPS plate reader, commercially available from Molecular Devices, San Jose, Calif.).
The presence of divalent cations in the binding buffer has the potential to facilitate the activation of the aptamer affinity motif, yet it could also instigate non-specific binding. […] After binding and washing steps, captured proteins were eluted with elution buffer and protein recovery in each eluate was measured using a fluorescence plate reader.

Sequence of bovine serum albumin (P02769 25-607, one chain of several): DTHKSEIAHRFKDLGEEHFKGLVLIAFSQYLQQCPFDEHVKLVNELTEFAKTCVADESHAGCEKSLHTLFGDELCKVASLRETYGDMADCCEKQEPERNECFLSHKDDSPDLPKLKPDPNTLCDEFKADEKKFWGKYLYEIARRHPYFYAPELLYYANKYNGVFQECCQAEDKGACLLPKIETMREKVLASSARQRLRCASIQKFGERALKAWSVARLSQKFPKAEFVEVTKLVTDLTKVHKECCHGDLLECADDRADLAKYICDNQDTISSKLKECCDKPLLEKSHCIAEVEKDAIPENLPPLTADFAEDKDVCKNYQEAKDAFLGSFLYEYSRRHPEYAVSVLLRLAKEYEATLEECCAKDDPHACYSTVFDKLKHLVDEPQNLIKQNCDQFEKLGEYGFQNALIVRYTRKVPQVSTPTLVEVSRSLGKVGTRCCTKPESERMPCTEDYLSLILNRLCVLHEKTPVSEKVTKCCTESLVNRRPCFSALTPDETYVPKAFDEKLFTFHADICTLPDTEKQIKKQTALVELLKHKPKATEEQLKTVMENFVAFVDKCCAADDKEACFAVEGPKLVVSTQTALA

B1: anti-human Fc 23-nt aptamer SEQ ID NO 1 (mixed)
RNA: GGAGGUGCUCCGAAAGGAACUCC
modifications: 2'-F U at 6, 9, 21; 2'-F C at 20; ribonucleotides at A3, G4, G5, G7, G16, G17; all other positions deoxyribonucleotides
As to B1, the binding result in data set [1] is on record as “binds”; with bovine serum albumin, “no binding”.
